Data as given in doi:10.1101/2021.12.06.471490 (bioRxiv, 2021).

Target: yeast tubulin heterodimer, Tub1-WT (internal 6X-His) with Tub2 (S. cerevisiae (budding yeast), UniProt P09733 1-447; P02557 1-457)
Assay: pull-down

Sequence of yeast tubulin heterodimer, Tub1-WT (internal 6X-His) with Tub2 (P09733 whole entry, chain 1 of 2): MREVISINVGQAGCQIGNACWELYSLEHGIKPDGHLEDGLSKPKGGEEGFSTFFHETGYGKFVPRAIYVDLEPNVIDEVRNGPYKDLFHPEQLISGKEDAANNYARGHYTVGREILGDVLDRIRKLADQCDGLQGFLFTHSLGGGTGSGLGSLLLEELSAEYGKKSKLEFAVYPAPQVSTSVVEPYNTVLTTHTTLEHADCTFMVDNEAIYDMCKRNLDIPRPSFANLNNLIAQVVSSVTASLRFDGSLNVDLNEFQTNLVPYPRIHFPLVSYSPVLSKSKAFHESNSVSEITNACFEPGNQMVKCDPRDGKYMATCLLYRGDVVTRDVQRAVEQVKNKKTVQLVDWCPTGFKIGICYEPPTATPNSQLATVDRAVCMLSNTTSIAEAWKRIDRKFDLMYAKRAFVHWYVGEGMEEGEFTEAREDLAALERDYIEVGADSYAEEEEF
Sequence of yeast tubulin heterodimer, Tub1-WT (internal 6X-His) with Tub2 (P02557 whole entry, chain 2 of 2): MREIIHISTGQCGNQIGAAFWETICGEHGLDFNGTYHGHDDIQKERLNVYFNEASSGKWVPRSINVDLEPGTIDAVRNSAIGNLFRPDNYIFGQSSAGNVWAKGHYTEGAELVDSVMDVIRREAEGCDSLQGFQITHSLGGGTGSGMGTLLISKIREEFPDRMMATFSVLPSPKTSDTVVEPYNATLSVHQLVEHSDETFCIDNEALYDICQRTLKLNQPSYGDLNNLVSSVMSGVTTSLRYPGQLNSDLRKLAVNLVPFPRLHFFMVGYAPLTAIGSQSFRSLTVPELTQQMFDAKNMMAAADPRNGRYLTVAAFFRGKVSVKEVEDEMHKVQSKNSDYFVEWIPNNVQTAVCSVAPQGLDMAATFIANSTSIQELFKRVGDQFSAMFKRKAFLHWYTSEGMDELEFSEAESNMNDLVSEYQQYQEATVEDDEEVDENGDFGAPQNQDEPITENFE

binding result: binds
B1: GST-TOG1/2 (the two TOG domains of Stu2 fused to a GST tag; Stu2 1-590) (domain or fragment, S. cerevisiae (budding yeast), UniProt P46675 1-590, looked up)
chain: MSGEEEVDYTTLPLEERLTYKLWKARLEAYKELNQLFRNSVGDISRDDNIQIYWRDPTLFAQYITDSNVVAQEQAIVALNSLIDAFASSSLKNAHNITLISTWTPLLVEKGLTSSRATTKTQSMSCILSLCGLDTSITQSVELVIPFFEKKLPKLIAAAANCVYELMAAFGLTNVNVQTFLPELLKHVPQLAGHGDRNVRSQTMNLIVEIYKVTGNNSDLLEEILFKKLKPIQVKDLHKLFAKVGDEPSSSKMLFEWEKRELEKKRSQEEEARKRKSILSNDEGEYQIDKDGDTLMGMETDMPPSKQQSGVQIDTFSMLPEETILDKLPKDFQERITSSKWKDRVEALEEFWDSVLSQTKKLKSTSQNYSNLLGIYGHIIQKDANIQAVALAAQSVELICDKLKTPGFSKDYVSLVFTPLLDRTKEKKPSVIEAIRKALLTICKYYDPLASSGRNEDMLKDILEHMKHKTPQIRMECTQLFNASMKEEKDGYSTLQRYLKDEVVPIVIQIVNDTQPAIRTIGFESFAILIKIFGMNTFVKTLEHLDNLKRKKIEETVKTLPNFSIASGSTHSTIETNKQTGPMENKFLLK
